PMC7015241, “Myopalladin promotes muscle growth through modulation of the serum response factor pathway” (Journal of Cachexia, Sarcopenia and Muscle, 2019)

Target: Filamentous actin (F-actin) (rabbit, UniProt P68135 1-377)
Assay: co-sedimentation; 1–30 μM polymerized actin incubated with 10 μM MYPN Ig3, Ig4 or Ig3–4 domain for 1 h in 100 μL, 150 000×g for 30 min; SDS-PAGE of supernatants and pellets, densitometry; F-buffer (Tris, KCl, MgCl2, DTT, pH 8.0)
Conditions: both partners purified

Kd: 4.6 µM
B1: Myopalladin (MYPN) Ig3-4 tandem domain (domain or fragment)
chain: PIFDKRLKHFRVTEGSPVTFTCKIVGIPVPKVYWFKDGKQISKRNEHCKMRREGDGTCSLHIESTTSDDDGNYTIMAANPQGRISCSGHLMVQSLPIRSRLTSAGQSHRGRSRVQERDKEPLQERFFRPHFLQAPGDMVAHEGRLCRLDCKVSGLPPPELTWLLNGQPVLPDASHKMLVRETGVHSLLIDPLTQRDAGTYKCIATNKTGQNSFSLELS
